Data: patent US20240141042A1 (INNATE PHARMA, published 2024)
Where a chain is given by its changes, count along the chain named. In names and notes the source's numbering stands. Where two headings read alike, the source gives them in different places.

B1: NKp46-2 (antibody, human IgG1, V domains shown)
VH: EVQLQESGPGLVKPSQSLSLTCTVTGYSITSDYAWNWIRQFPGNKLEWMGYITYSGSTSYNPSLESRISITRDTSTNQFFLQLNSVTTEDTATYYCARGGYYGSSWGVFAYWGQGTLVTVSA
VL: DIQMTQSPASLSASVGETVTITCRVSENIYSYLAWYQQKQGKSPQLLVYNAKTLAEGVPSRFSGSGSGTQFSLKINSLQPEDFGSYYCQHHYGTPWTFGGGTKLEIK
notes: also called parental human IgG1 chimeric antibody NKp46-2
B2: CD19-F5-NKp46-3 (bispecific antibody, human IgG1, kappa)
chain 1: not shown
chain 2: not shown
chain 3: DIVMTQSPATLSVTPGDRVSLSCRASQSISDYLHWYQQKSHESPRLLIKYASQSISGIPSRFSGSGSGSDFTLSINSVEPEDVGVYYCQNGHSFPLTFGAGTKLELKASTKGPSVFPLAPSSKSTSGGTAALGCLVKDYFPEPVTVSWNSGALTSGVHTFPAVLQSSGLYSLSSVVTVPSSSLGTQTYICNVNHKPSNTKVDKRVEPKSCDKTH
notes: Heterotrimer with dimeric Fc: first (170), second (169) and third (171) chain
B3: CD19-F11-NKp46-3 (bispecific antibody)
chain 1: DIQLTQSPASLAVSLGQRATISCKASQSVDYDGDSYLNWYQQIPGQPPKLLIYDASNLVSGIPPRFSGSGSGTDFTLNIHPVEKVDAATYHCQQSTEDPWTFGGGTKLEIKGGGGSGGGGSGGGGSQVQLQQSGAELVRPGSSVKISCKASGYAFSSYWMNWVKQRPGQGLEWIGQIWPGDGDTNYNGKFKGKATLTADESSSTAYMQLSSLASEDSAVYFCARRETTTVGRYYYAMDYWGQGTTVTVSSGGGSSAPELLGGPSVFLFPPKPKDTLMISRTPEVTCVVVDVSHEDPEVKFNWYVDGVEVHNAKTKPREEQYSSTYRVVSVLTVLHQDWLNGKEYKCKVSNKALPAPIEKTISKAKGQPREPQVYTLPPSREEMTKNQVSLTCLVKGFYPSDIAVEWESNGQPENNYKTTPPVLDSDGSFFLYSKLTVDKSRWQQGNVFSCSVMHEALHNHYTQKSLSLSPGGGGGSGGGGSGGGGSGQPREPQVYTLPPSREEMTKNQVSLTCLVKGFYPSDIAVEWESNGQPENNYKTTPPVLDSDGSFFLYSKLTVDKSRWQQGNVFSCSVMHEALHNHYTQKSLSLSPGSTGSEVQLQQSGPELVKPGASVKISCKTSGYTFTEYTMHWVKQSHGKSLEWIGGISPNIGGTSYNQKFKGKATLTVDKSSSTAYMELRSLTSEDSAVYYCARRGGSFDYWGQGTTLTVSSRTVAAPSVFIFPPSDEQLKSGTASVVCLLNNFYPREAKVQWKVDNALQSGNSQESVTEQDSKDSTYSLSSTLTLSKADYEKHKVYACEVTHQGLSSPVTKSFNRGEC
chain 2: B2 chain 3
notes: Heterodimer; also called CD19-F11A-NKp46-3
B4: CD19-F6-NKp46-3 (bispecific antibody, human IgG1, kappa)
chain 1: not shown
chain 2: not shown
chain 3: B2 chain 3
notes: As F5 but with N297S: first (173), second (172) and third (174) chain
B5: NKp46-4 (antibody, V domains shown)
VH: QVQLQQSAVELARPGASVKMSCKASGYTFTSFTMHWVKQRPGQGLEWIGYINPSSGYTEYNQKFKDKTTLTADKSSSTAYMQLDSLTSDDSAVYYCVRGSSRGFDYWGQGTLVTVSA
VL: DIQMIQSPASLSVSVGETVTITCRASENIYSNLAWFQQKQGKSPQLLVYAATNLADGVPSRFSGSGSGTQYSLKINSLQSEDFGIYYCQHFWGTPRTFGGGTKLEIK
notes: also called Antibody NKp46-4
B6: NKp46-3 IgG1 (antibody, V domains shown)
VH: EVQLQQSGPELVKPGASVKISCKTSGYTFTEYTMHWVKQSHGKSLEWIGGISPNIGGTSYNQKFKGKATLTVDKSSSTAYMELRSLTSEDSAVYYCARRGGSFDYWGQGTTLTVSS
VL: DIVMTQSPATLSVTPGDRVSLSCRASQSISDYLHWYQQKSHESPRLLIKYASQSISGIPSRFSGSGSGSDFTLSINSVEPEDVGVYYCQNGHSFPLTFGAGTKLELK
notes: Chimeric full-length human IgG1; also called NKp46-3 antibody as a full-length human IgG1

Assays:
[1] = target: T1, human NKp46 expressed at the cell surface (human, UniProt O76036 22-304); assay: flow cytometry on HEK293T cells transfected with wild-type NKp46, antibody titrated 0.001-1 ug/ml
T1 construct: Wild-type NKp46 on cells (transfected cell lines or NK cells); also called cell line expressing the human NKp46 construct; NKp46 cell line

[2] = target: T2, NKp46 mutant 19 (human, UniProt O76036 22-304); assay: flow cytometry on HEK293T cells transfected with NKp46 mutant 19 (I135A, S136A), antibody titrated 0.001-1 ug/ml
T2 construct: Expressed in transfected HEK293T cells
T2 chain: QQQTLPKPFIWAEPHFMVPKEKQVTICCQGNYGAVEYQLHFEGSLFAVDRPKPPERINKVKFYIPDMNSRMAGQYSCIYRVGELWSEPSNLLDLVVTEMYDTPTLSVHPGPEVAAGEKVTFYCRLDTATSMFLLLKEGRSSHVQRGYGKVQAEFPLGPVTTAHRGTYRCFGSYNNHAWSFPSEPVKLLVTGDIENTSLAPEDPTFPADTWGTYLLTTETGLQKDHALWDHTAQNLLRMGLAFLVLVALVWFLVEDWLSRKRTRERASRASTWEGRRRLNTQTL

[3] = target: T3, NKp46 mutant 2 (human, UniProt O76036 22-304); assay: flow cytometry on HEK293T cells transfected with NKp46 mutant 2 (K41S, E42A, E119A), antibody titrated 0.001-1 ug/ml
T3 construct: Expressed in transfected HEK293T cells
T3 chain: T2 chain with K20S, E21A, E98A, A114I, A115S
Protocol: All the anti-NKp46 antibodies were tested for their binding to each mutant by flow cytometry. A first experiment was performed to determine antibodies that lose their binding to one or several mutants at one concentration (10 μg/ml).

[4] = target: T4, NKp46 mutant Supp7 (human, UniProt O76036 22-304); assay: flow cytometry on HEK293T cells transfected with NKp46 mutant Supp7 (Y121A, Y194A; printed 'Mutant S7'), antibody titrated 0.001-1 ug/ml
T4 construct: Expressed in transfected HEK293T cells; also called supplementary mutant Supp7
T4 chain: T2 chain with Y100A, A114I, A115S, Y173A

[5] = target: T5, NKp46 mutant Supp8 (human, UniProt O76036 22-304); assay: flow cytometry on HEK293T cells transfected with NKp46 mutant Supp8 (P132A, E133A; printed 'Mutant S8'), antibody titrated 0.001-1 ug/ml
T5 construct: Expressed in transfected HEK293T cells; also called supplementary mutant Supp8
T5 chain: T2 chain with P111A, E112A, A114I, A115S

[6] = target: T6, human FcRn (Example 10) (human, UniProt P55899 24-297; P61769 21-119, limits assumed); assay: SPR, FcRn immobilized on CM5, SCK/Two state reaction
T6 construct: Construct not described; Beta-2-microglobulin is not mentioned; also called recombinant FcRn proteins
T6 sequence (P55899 24-297 limits assumed, form in doubt, chain 1 of 2): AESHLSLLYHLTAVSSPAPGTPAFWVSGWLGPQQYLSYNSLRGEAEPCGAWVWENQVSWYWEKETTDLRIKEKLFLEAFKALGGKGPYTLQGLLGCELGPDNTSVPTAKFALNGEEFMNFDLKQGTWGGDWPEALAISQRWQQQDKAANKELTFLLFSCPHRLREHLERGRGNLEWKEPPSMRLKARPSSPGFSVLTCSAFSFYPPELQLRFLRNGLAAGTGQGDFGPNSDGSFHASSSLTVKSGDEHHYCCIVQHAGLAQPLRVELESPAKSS
T6 sequence (P61769 21-119 limits assumed, form in doubt, chain 2 of 2): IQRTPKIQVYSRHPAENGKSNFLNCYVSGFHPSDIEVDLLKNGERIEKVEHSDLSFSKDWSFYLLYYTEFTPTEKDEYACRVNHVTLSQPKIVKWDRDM
Protocol: SPR measurements were performed on a Biacore T100 apparatus (Biacore GE Healthcare) at 25° C. In all Biacore experiments Acetate Buffer (50 mM Acetate pH5.6, 150 mM NaCl, 0.1% surfactant p20) and HBS-EP+ (Biacore GE Healthcare) served as running buffer and regeneration buffer respectively. Sensorgrams were analyzed with Biacore T100 Evaluation software. Recombinant mouse FcRn was purchase from R&D Systems.
(§1) Recombinant FcRn proteins were immobilized covalently to carboxyl groups in the dextran layer on a Sensor Chip CM5. The chip surface was activated with EDC/NHS (N-ethyl-N′-(3-dimethylaminopropyl) carbodiimidehydrochloride and N-hydroxysuccinimide (Biacore GE Healthcare)). FcRn proteins were diluted to 10 μg/ml in coupling buffer (10 mM acetate, pH 5.6) and injected until the appropriate immobilization level was reached (i.e. 2500 RU). Deactivation of the remaining activated groups was performed using 100 mM ethanolamine pH 8 (Biacore GE Healthcare).

[7] = target: T7, Human NKp46 recombinant proteins (human, UniProt O76036 22-258); assay: SPR, bispecific captured on Protein-A chip, human NKp46 injected, 1:1 kinetic model
T7 construct: also called recombinant human NKp46 proteins
Protocol: SPR measurements were performed on a Biacore T100 apparatus (Biacore GE Healthcare) at 25° C. In all Biacore experiments HBS-EP+(Biacore GE Healthcare) and NaOH 10 mM served as running buffer and regeneration buffer respectively. Sensorgrams were analyzed with Biacore T100 Evaluation software. Protein-A was purchase from (GE Healthcare). Human NKp46 recombinant proteins were cloned, produced and purified at Innate Pharma.
as §1, with “Protein-A” for “Recombinant FcRn”, “Protein-A was” for “FcRn proteins were”, “2000” for “2500”
Monovalent affinity study was done following a regular Capture-Kinetic protocol recommended by the manufacturer (Biacore GE Healthcare kinetic wizard). Seven serial dilutions of human NKp46 recombinant proteins, ranging from 6.25 to 400 nM were sequentially injected over the captured Bi-Specific antibodies and allowed to dissociate for 10 min before regeneration. The entire sensorgram sets were fitted using the 1:1 kinetic binding model.

[8] = target: T6, human FcRn (Example 10); assay: SPR, FcRn immobilized on CM5, Steady State
[9] = target: T1, human NKp46 expressed at the cell …; assay: flow cytometry on HEK293T cells transfected with wild-type NKp46, antibody titrated 0.001-1 ug/ml; remark: listed apart in the source
[10] = target: T7, Human NKp46 recombinant proteins; assay: SPR, antibody captured on Protein-A chip, human NKp46 injected, 1:1 kinetic model
[11] = target: T8, NKp46 mutant 6 (human, UniProt O76036 22-304); assay: flow cytometry on HEK293T cells transfected with NKp46 mutant 6 (R101A, V102A), antibody titrated 0.001-1 ug/ml
T8 construct: Expressed in transfected HEK293T cells
T8 chain: T2 chain with R80A, V81A, A114I, A115S

Binder	binding result [2]	binding result [3]	binding result [4]	Kd [6] [nM]	Kd [7] [nM]	koff [7] [s⁻¹]	kon [7] [M⁻¹ s⁻¹]	further results
B1	binds	binds	binds	–	–	–	–	binding result [1]: binds; binding result [5]: binds
B2	–	–	–	2.6	67	0.0051	75600	–
B3	–	–	–	–	30	0.0104	339000	Kd [8]: 596 nM
B4	–	–	–	6	63	0.00503	79300	–
B5	binds	–	–	–	–	–	–	binding result [9]: binds
B6	–	binds	binds	–	–	–	–	Kd [10]: 20 nM; koff [10]: 0.00433 s⁻¹; kon [10]: 222000 M⁻¹ s⁻¹; binding result [11]: binds
